Experimental data as given in patent US20230357429A1 (JANUX THERAPEUTICS, published 2023).
Where no end group is shown, it is not given here.

Key:
[1] = target: T1, TBD-1 wt; test: competition ELISA, peptide vs Fab binding to captured biotin-TROP2
T1 construct: Fab; the heavy chain entry is VH-CH1; also called wild-type anti-TROP2 Fab (hRS7); TROP2 Fab

[2] = target: T2, TBD-6 (LC I93A); test: as above
T2 construct: Fab; also called LC I93A mutant

[3] = target: T3, TBD-11 (HC R98A); test: as above
T3 construct: Fab; also called HC R98A mutant

[4] = target: T4, TBD-17 (HC S104A); test: as above
T4 construct: Fab; also called HC S104A mutant

[5] = target: T5, TBD-22 (HC D109A); test: as above
T5 construct: Fab; also called HC D109A mutant

[6] = target: T6, TBD-21 (HC F108A); test: as above
T6 construct: Fab; also called HC F108A mutant

[7] = target: T7, TBD-17 (HC S104A); test: competition ELISA, Fab on captured TROP2
T7 construct: anti-TROP2 Fab, CDR3 HC alanine mutant

[8] = target: T8, TBD-21 (HC F108A); test: competition ELISA, Fab on captured TROP2
T8 construct: anti-TROP2 Fab, CDR3 HC alanine mutant

[9] = target: T9, TBD-22 (HC D109A); test: competition ELISA, Fab on captured TROP2
T9 construct: anti-TROP2 Fab, CDR3 HC alanine mutant

[10] = target: T10, TBD-6 (LC I93A); test: competition ELISA, Fab on captured TROP2
T10 construct: anti-TROP2 Fab, CDR3 LC alanine mutant

[11] = target: T11, TBD-1 wt (anti-TROP2 Fab, hRS7); test: competition ELISA, Fab on captured TROP2
T11 construct: non-mutated Fab

[12] = target: T12, TBD-11 (HC R98A); test: competition ELISA, Fab on captured TROP2
T12 construct: anti-TROP2 Fab, CDR3 HC alanine mutant

| IC50 [1] | IC50 [2] | IC50 [3] | IC50 [4] | IC50 [5] | IC50 [6] | IC50 [7] | IC50 [8] | IC50 [9] | IC50 [10] | IC50 [11] | IC50 [12] | Binder |
| --- | --- | --- | --- | --- | --- | --- | --- | --- | --- | --- | --- | --- |
| 2230 nM | 1100 nM | 5850 nM | 2080 nM | 160 nM | 5880 nM |  |  |  |  |  |  | IDFCAVYKWPVCQV (cysteine pairing not given here; also: biotinylated (site not given here)) [Peptide-2] |
|  |  |  |  |  |  | 11500 nM | 25900 nM | 700 nM | 5180 nM | 5140 nM | 22300 nM | VEFCAIYSWPICKI (mask peptide for the TROP2 Fab) [Peptide-46] |
|  |  |  |  |  |  | 1540 nM | 3700 nM | 20 nM | 920 nM | 560 nM | 1970 nM | VDFCAIYSWPICKI (mask peptide for the TROP2 Fab) [Peptide-50] |
|  |  |  |  |  |  | 24100 nM | 106000 nM | 3030 nM | 5620 nM | 10100 nM | 21000 nM | VDFCYQYGWPICSRV (mask peptide for the TROP2 Fab) [Peptide-56] |
| 780 nM | 350 nM | 2490 nM | 1020 nM | 70 nM | 2890 nM |  |  |  |  |  |  | IDFCAMYQWPICDT (cysteine pairing not given here; also: biotinylated (site not given here)) [Peptide-1] |
| 1270 nM | 6110 nM | 3960 nM | 7080 nM | 350 nM | 7560 nM |  |  |  |  |  |  | MDFCQIYDWPICRL (cysteine pairing not given here; also: biotinylated (site not given here)) [Peptide-18] |
|  |  |  |  |  |  | 2530 nM | 8670 nM | 70 nM | 2250 nM | 3730 nM | 6370 nM | IDFCLLYKWPVCEL (mask peptide for the TROP2 Fab) [Peptide-49] |
| 1220 nM | 620 nM | 4040 nM | 1520 nM | 60 nM | 2900 nM |  |  |  |  |  |  | IDFCAIYQWPVCRS (cysteine pairing not given here; also: biotinylated (site not given here)) [Peptide-10] |
|  |  |  |  |  |  | 8860 nM | 75200 nM | 310 nM | 6260 nM | 10000 nM | 31300 nM | VDFCYMYKWPVCYP (mask peptide for the TROP2 Fab) [Peptide-48] |
|  |  |  |  |  |  | 550 nM | 1270 nM | 10 nM | 420 nM | 180 nM | 620 nM | VDFCGLYHWPICYQV (mask peptide for the TROP2 Fab) [Peptide-51] |
|  |  |  |  |  |  | 17300 nM | 88100 nM | 1910 nM | 12700 nM | 16700 nM |  | IDFCYRYGWPVCQT (mask peptide for the TROP2 Fab) [Peptide-57] |
| 460 nM | 1460 nM | 850 nM | 2230 nM | 70 nM | 2240 nM |  |  |  |  |  |  | PDFCAVYRWPICYQ (cysteine pairing not given here; also: biotinylated (site not given here)) [Peptide-12] |
|  |  |  |  |  |  | 1250 nM | 2120 nM | 100 nM | 760 nM |  | 940 nM | VDFCGLYHWPICYQ (mask peptide for the TROP2 Fab) [Peptide-8] |
|  |  |  |  |  |  | 510 nM | 1040 nM | 50 nM | 480 nM | 270 nM | 870 nM | VDFCALYHWPICYQ (mask peptide for the TROP2 Fab) [Peptide-43] |
| 1010 nM | 970 nM | 2680 nM | 2990 nM | 200 nM | 3200 nM |  |  |  |  |  |  | VDFCELYRWPICNS (cysteine pairing not given here; also: biotinylated (site not given here)) [Peptide-13] |
| 460 nM | 400 nM | 3240 nM | 2040 nM | 130 nM | 3300 nM |  |  |  |  |  |  | VDFCKIYAWPICGS (cysteine pairing not given here; also: biotinylated, site not given here) [Peptide-4] |
|  |  |  |  |  |  | 3490 nM | 9640 nM | 100 nM | 1940 nM | 3490 nM | 7550 nM | VDFCALYNWPVCAI (mask peptide for the TROP2 Fab) [Peptide-59] |
|  |  |  |  |  |  | 7560 nM | 22700 nM | 590 nM | 4510 nM | 8930 nM | 16100 nM | IDFCRVYDWPVCSL (mask peptide for the TROP2 Fab) [Peptide-53] |
|  |  |  |  |  |  | 7210 nM | 16800 nM | 330 nM | 3120 nM | 4390 nM | 14000 nM | VDFCYKYNWPICSR (mask peptide for the TROP2 Fab) [Peptide-55] |
| 920 nM | 800 nM | 9170 nM | 1110 nM | 33600 nM | 1490 nM |  |  |  |  |  |  | SYLVCVKNVYCWTA (cysteine pairing not given here; also: biotinylated, site not given here) [Peptide-29] |
| 2190 nM | 1540 nM | 3420 nM | 5720 nM | 190 nM | 6920 nM |  |  |  |  |  |  | LDFCKIYDWPICHL (cysteine pairing not given here; also: biotinylated (site not given here)) [Peptide-14] |
|  |  |  |  |  |  | 1830 nM | 7750 nM | 260 nM | 1190 nM | 1830 nM | 12200 nM | VDFCALYHWPVCGL (mask peptide for the TROP2 Fab) [Peptide-61] |
|  | 1860 nM | 8840 nM | 3090 nM | 90 nM | 7940 nM |  |  |  |  |  |  | IDFCLIYNWPVCDT (cysteine pairing not given here; also: biotinylated, site not given here) [Peptide-6] |
|  |  |  |  |  |  | 29900 nM | 161000 nM | 3620 nM | 23400 nM | 27100 nM |  | VDFCYRYSWPVCWA (mask peptide for the TROP2 Fab) [Peptide-54] |
|  |  |  |  |  |  | 2090 nM | 5450 nM | 160 nM | 670 nM | 470 nM | 2560 nM | VDFCNLYHWPICAI (mask peptide for the TROP2 Fab) [Peptide-60] |
| 430 nM | 760 nM | 1950 nM | 2070 nM | 70 nM | 2940 nM |  |  |  |  |  |  | IDFCLLYDWPICGR (cysteine pairing not given here; also: biotinylated (site not given here)) [Peptide-17] |
| 1590 nM | 1050 nM | 7230 nM | 1790 nM | 100 nM | 7160 nM |  |  |  |  |  |  | VDFCKLYNWPVCQT (cysteine pairing not given here; also: biotinylated, site not given here) [Peptide-5] |
